According to the supplement of paper PMC11908140:

B1: library; numbered along this chain (parent)
chain: MRKPRAAVGSGHRKQAASQEGRQKHAKNNSQAKPSACDGLARQPEEVVLQASVSSYHLFRDVAEVTAFRGSLLSWYDQEKRDLPWRRRAEDEMDLDRRAYAVWVSEVMLQQTQVATVINYYTGWMQKWPTLQDLASASLEEVNQLWAGLGYYSRGRRLQEGARKVVEELGGHMPRTAETLQQLLPGVGRYTAGAIASIAFGQATGVVDGNVARVLCRVRAIGADPSSTLVSQQLWGLAQQLVDPARPGDFNQAAMELGATVCTPQRPLCSQCPVESLCRARQRVEQEQLLASGSLSGSPDVEECAPNTGQCHLCLPPSEPWDQTLGVVNFPRKASRKPPREESSATCVLEQPGALGAQILLVQRPNSGLLAGLWEFPSVTWEPSEQLQRKALLQELQRWAGPLPATHLRHLGEVVHTFSHIKLTYQVYGLALEGQTPVTTVPPGARWLTQEEFHTAAVSTAMKKVFRVYQGQQPGTCMGSKRSQVSSPCSRKKPRMGQQVLDNFFRSHISTDAHSLNSAAQ

Variants of: B1
Assay: 8OG:A repair function score (normalized; synonymous = 0, nonsense = -1) (normalized log-likelihood score); higher = more repair activity (WT-like)
Settings: with 8OG:A DNA repair reporter (GFP) in HEK-293 MUTYH KO cells
In short: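 Per-tile Rosace fitness scores were converted to a normalized repair function score anchored on synonymous and nonsense distributions. That scale puts synonymous medians at 0 and nonsense medians at -1. Variants with starting counts under 300 counts per million were discarded. Input came from sorting viable mCherry+ MUTYH knockout HEK-293 cells, carrying lentiviral MUTYH cDNA NNN codon-scan libraries in 10 pg/ml doxycycline and an 8OG:A GFP repair reporter, into GFP+ and GFP− bins at 72 h, three replicates per tile, followed by tile amplicon sequencing.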
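Further: cells sorted at 72 h after reporter transfection.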

8OG:A repair function score of substitutions, site by site:
R409: K -0.145, Y -0.0918, N -0.0513, M -0.242, H -0.288, P -0.541, F -0.167, Q -0.332, G -0.342, V 0.0575, I -0.183, C -0.178, E 0.0558, L 0.0499, A -0.0367, W 0.0733, D -0.0632, S 0.0978, T 0.31
P404: F -0.272, W -0.26, I 0.118, K 0.298, E 0.341, A -0.142, M 0.184, S -0.587, L 0.0132, V -0.000894, G -0.187, C -0.224, H 0.138, Q 0.15, T -0.55, D -0.155, Y -0.119, N 0.336, R 0.163
T406: F -0.539, E -0.17, A 0.32, C 0.13, R 0.0241, G -0.00238, V 0.013, S -0.184, L -0.249, M -0.199, D 0.483, Y -0.265, H 0.516, N 0.0152, Q -0.294, I 0.313, K 0.103, W -0.0828, P -0.287
T417: C -0.188, F 0.0432, A 0.198, E 0.0158, D -0.0817, G -0.208
H407: C -0.123, T -0.107, K -0.104, G -0.0586, E -0.226, M -0.456, V 0.0608, A 0.245, I 0.0779, W -0.172, P -0.0456, L -0.0178, D 0.0493, Q 0.0383, R -0.0136, F -0.245, Y -0.269, S -0.109, N 0.205
E413: C -0.201, I 0.00451, Q -0.0587, T 0.369, D -0.00314, L -0.056, M -0.375, W -0.379, N -0.0589, Y -0.109, G -0.112, V -0.059, K 0.103, S 0.169, A -0.0523, P -0.386, R -0.0915, F 0.0141, H 0.00964
H410: R 0.0868, C -0.293, V -0.2, A -0.29, Q -0.291, K -0.0723, E -0.292, Y 0.174, D -0.324, P -0.371, N -0.157, L -0.3, S -0.169, W -0.367, T -0.322, I -0.161, F 0.096, G -0.298, M 0.0995
W399: S -0.232, V -0.167, R -0.289, Y 0.509, T -0.296, Q -0.108, P -0.724
G412: L -0.855, K -0.396, F -0.473, R -0.598, C -0.809, I -0.788, W -0.986, T -0.494, N -0.34, H -0.792, A -0.236, P -0.295, M -0.67, E -0.631, Y -0.721, Q -0.645, S -0.26, V -0.894, D -0.162
V415: P -0.0885, C 0.022, N -0.11, E -0.106, M 0.0821, A 0.0175, Y -0.275, W 0.0208, D -0.364, G -0.172, H -0.115, L 0.0523, K -0.327, F -0.391, Q 0.189, S 0.0289, R 0.157, I 0.053, T -0.106
P402: G -0.274, R -0.0808, I -0.0565, V -0.0663, A -0.0823, E -0.208, T -0.26, D 0.516, Q -0.236, C -0.0435, N -0.282, W -0.534, M 0.138, K -0.00401, L -0.318, Y -0.122, S -0.138, F -0.215
L411: W -0.28, C 0.0617, Q -0.494, K -0.505, V 0.0699, T -0.469, R -0.222, I 0.148, S -0.29, M -0.193, F -0.151, G -0.531, N -0.503, P -0.665, D -0.751, H 0.0947, Y 0.251, E -0.473, A -0.00099
A405: H -0.489, D -0.0995, R 0.00307, V -0.00982, F 0.0223, Q -0.0438, T -0.128, G -0.0383, N -0.161, C 0.144, S 0.0326, I 0.0761, L -0.177, M -0.161, E 0.199, W -0.606, P 0.125, K 0.0168, Y -0.204
H416: A -0.0865, E -0.909, Y -0.438, I -0.188, G -0.0614, W -0.209, S -0.0543, R -0.158, K -0.715, P -0.576, V -0.101, D -0.403, T 0.0616, C -0.483, M -0.755, F -0.448, L -0.319, N -0.342, Q 0.399
L408: V -0.347, K -0.858, T -0.417, F -0.529, I 0.246, H -1.11, M -0.0275, C 0.18, E -1.61, R -0.839, P -0.461, A -0.717, D -0.946, N -0.893, Y -0.205, G -0.81, S -0.483, Q -0.293, W -0.833
L403: R -0.392, I 0.0162, E -0.596, K -0.295, P -0.0649, Q 0.0753, Y -0.513, V 0.058, A -0.335, W -0.318, M -0.0231, G -0.509, F 0.0495, D -0.686, S -0.428, C 0.158, T 0.0396, N -0.0773
A400: S -0.189, R -0.432, W -0.139, V -0.246, I -0.319, N -0.913, F 0.262, P -0.723, H 0.179, C -0.215, Y -0.116, Q -0.0826, K -0.458, L -0.241, E -0.727, M 0.54, D -0.752, G -0.0159, T -0.0197
V414: M -0.321, I -0.137, D -0.769, A -0.157, G -0.649, H -0.326, T -0.0984, L -0.0973, P -1.01, F -0.187, R -0.625, S -0.294, K -0.609, N -0.679, W -0.504, Y -0.314, Q -0.321, C 0.129, E -0.742
G401: L -0.214, N 0.111, W -0.421, Q -0.521, T -0.428, H -0.241, Y -0.393, E 0.191, R -0.272, A -0.317, C -0.381, V -0.142, P 0.0452, I -0.184, D 0.0297, M -0.302, K -0.582, F -0.16, S -0.0552
